These results are taken from patent publication US20110176995A1 (Chugai, published 2011).

For experiment [1], the target named is T1, human GPR49 protein (human, UniProt O75473 22-907).
T1 construct: also called LGR5; GPR49 molecule
T1 sequence: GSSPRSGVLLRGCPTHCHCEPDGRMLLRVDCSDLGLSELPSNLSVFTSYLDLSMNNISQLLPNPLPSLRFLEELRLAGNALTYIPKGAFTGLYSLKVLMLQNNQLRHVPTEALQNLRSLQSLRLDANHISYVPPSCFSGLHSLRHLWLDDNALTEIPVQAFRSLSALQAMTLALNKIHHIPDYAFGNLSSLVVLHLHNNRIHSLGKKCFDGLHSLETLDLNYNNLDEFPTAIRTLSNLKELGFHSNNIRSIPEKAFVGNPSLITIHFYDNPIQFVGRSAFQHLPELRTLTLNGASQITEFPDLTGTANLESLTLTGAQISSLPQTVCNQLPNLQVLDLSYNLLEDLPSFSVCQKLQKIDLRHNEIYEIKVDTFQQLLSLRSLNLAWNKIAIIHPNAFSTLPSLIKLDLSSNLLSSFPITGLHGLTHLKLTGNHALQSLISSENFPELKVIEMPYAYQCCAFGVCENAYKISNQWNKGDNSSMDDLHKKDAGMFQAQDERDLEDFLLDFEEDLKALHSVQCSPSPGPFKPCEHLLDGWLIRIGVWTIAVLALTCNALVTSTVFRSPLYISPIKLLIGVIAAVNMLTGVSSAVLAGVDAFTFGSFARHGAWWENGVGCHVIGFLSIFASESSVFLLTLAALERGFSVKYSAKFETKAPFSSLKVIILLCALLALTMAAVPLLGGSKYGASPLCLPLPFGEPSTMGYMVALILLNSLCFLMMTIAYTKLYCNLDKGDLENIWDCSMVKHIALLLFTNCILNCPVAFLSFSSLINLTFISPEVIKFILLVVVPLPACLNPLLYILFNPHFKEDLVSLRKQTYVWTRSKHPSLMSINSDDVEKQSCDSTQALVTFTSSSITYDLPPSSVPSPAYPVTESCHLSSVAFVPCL
Nature of the experiment: flow cytometry, 10 ug/mL antibody on OVSAHO, Alexander and NUGC-4 cells. Here is the method: The reactivity of 2T15E-2 antibody to human cancer cell lines were analyzed by flow cytometry. Human cancer cell lines suspended in a FACS buffer (2% FBS/PBS/0.05% NaN₃) were diluted to 1×10⁶ cells/mL with the FACS buffer, and the solutions were then dispensed into a Falcon 353910 round-bottom 96-well plate at 50 μL/well. 2T15E-2 antibody diluted to a concentration of 10 μg/mL was added, and this was reacted for 60 minutes on ice. Next, the cells were washed once with the FACS buffer. After adding Goat F(ab′)₂ fragment anti-mouse IgG (Fcγ)-FITC (Beckman Coulter) as a secondary antibody to the wells containing the cells, this was reacted for 30 minutes on ice. After the reaction, the supernatant was removed by centrifugation, and then the cells were suspended in 100 μL of FACS buffer containing propidium iodide (PI) and then subjected to flow cytometry. A FACS Calibur (Becton Dickinson) was used for the flow cytometry. The viable cell population was gated with a forward scatter-side scatter dot blot, an FL1 histogram was made of the cells contained in the population, and binding activity thereof was evaluated.
The peaks indicated with a solid line indicate the reactivity with cancer cell lines, and the shaded regions represent the peaks obtained when the reactions are carried out without antibodies. […]

Experiment [2] concerns the target T2, HA-GPR49 (full-length human GPR49 with an HA-tag inserted at the N-terminus) (human, UniProt O75473 22-907).
T2 construct: Expressed in DG44 cells (line 2B10) and, inducibly with doxycycline, in 293FlpIn T-Rex cells (lines B2, B4); On whole cells in flow cytometry and cytotoxicity assays; as cell lysate in Western blotting and immunoprecipitation; also called human GPR49/DG44 cells (2B10); HA-GPR49-expressing DG44 cell line 2B10; not shown: HA-tag inserted at the N-terminus of GPR49
T2 sequence: T1 sequence
Nature of the experiment: flow cytometry, hybridoma supernatant on 2B10 cells against parental DG44. Here is the method: The binding to the human GPR49/DG44 cells (2B 10) was evaluated by flow cytometry using the obtained hybridomas. The cell lines expressing human GPR49 suspended in FACS buffer (2% FBS/PBS/0.05% NaN₃) were diluted to 1×10⁶ cells/mL with FACS buffer, and then aliquoted at 50 μL/well into a Falcon 353910 round-bottom 96-well plate. Hybridoma culture supernatant diluted to a suitable concentration was added to the wells containing the cells and reacted for 60 minutes on ice. Then, the cells were washed once with FACS buffer. Goat F(ab′)₂ fragment anti-mouse IgG(H+ L)-FITC (Beckman Coulter) was added to the wells containing the cells as a secondary antibody, and reacted for 30 minutes on ice. After reaction, the supernatant was removed by centrifugation, and then the cells suspended in 100 μL of FACS buffer were subjected to flow cytometry. A FACS Calibur (Becton Dickinson) was used for flow cytometry. The viable cell population was gated with a forward scatter-side scatter dot blot, an FL1 histogram was made of the cells contained in the population, and binding activity thereof was evaluated.
When the hybridoma supernatants were reacted with 2B 10 in which GPR49 is induced and expressed in DG44 cells and with the parental cell line DG44 respectively, hybridomas that specifically reacted with GPR49-expressing cells were obtained. The hybridomas from these wells were made into single clones by the limiting dilution method. The isotype of each antibody was analyzed using an IsoStrip™ mouse monoclonal antibody isotyping kit (Roche Diagnostics). As a result, 2J18-1N and 2J18-3 were IgM, and 2L7-8, 2L9-3, 2L10-19, 2L13-3, 2L15-12, 2L16-15, 2L18-15, 2L33-6, 2L34-5, 2L36-12, 2T4E-6, 2T9E1#14, 2T15E-2, 2T42E-4, 2T54-2, 2T65-3, 2T37-16, 2U1E-1, 2U2E-2, and 2U4E-11 were IgG1. Culturing of the hybridomas made into single clones was scaled up, and then the antibodies were purified from the culture supernatant using a protein G column in accordance with the manual. The IgM antibodies were purified using a protein L column in accordance with the manual. The purified antibodies were quantified by DC Protein Assay or such.
(In general: A flow cytometer gives signals particle by particle.)

Another experiment addresses T3, mouse GPR49 (mouse, UniProt Q9Z1P4 22-907, limits assumed).
T3 construct: Expressed transiently in 293T cells; the cell lysate was analysed by Western blotting; also called mouse (M) GPR49
T3 sequence (looked up): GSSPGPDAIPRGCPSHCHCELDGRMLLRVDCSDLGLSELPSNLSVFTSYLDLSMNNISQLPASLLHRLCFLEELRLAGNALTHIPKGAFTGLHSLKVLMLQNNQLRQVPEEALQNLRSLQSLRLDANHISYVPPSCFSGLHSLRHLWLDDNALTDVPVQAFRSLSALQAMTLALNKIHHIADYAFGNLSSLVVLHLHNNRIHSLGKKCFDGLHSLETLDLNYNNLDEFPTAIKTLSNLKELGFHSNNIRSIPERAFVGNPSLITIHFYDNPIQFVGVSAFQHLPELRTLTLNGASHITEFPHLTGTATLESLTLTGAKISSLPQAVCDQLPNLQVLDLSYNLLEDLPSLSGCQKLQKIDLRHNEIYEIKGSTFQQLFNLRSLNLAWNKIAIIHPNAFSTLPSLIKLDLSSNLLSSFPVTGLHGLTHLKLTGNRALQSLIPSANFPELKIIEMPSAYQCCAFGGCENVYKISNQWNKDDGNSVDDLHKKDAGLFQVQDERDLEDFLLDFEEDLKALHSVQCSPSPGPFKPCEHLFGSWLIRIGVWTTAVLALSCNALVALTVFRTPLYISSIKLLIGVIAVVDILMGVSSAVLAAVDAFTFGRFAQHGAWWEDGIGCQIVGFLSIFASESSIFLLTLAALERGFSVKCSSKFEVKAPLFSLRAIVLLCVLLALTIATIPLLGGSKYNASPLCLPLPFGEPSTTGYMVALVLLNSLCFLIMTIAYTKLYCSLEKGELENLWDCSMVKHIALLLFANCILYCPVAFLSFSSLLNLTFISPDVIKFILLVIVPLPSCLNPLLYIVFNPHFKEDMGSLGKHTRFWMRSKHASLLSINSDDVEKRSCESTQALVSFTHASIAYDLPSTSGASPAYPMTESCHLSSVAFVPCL
Nature of the experiment: Western blotting. For orientation: Immunoblotting shows a protein as a band on a membrane.

For experiment [3], the target named is T1, human GPR49 protein. Nature of the experiment: Western blotting of LoVo cell lysate.
The target in experiment [4] is T2, HA-GPR49 (full-length human GPR49 with …). Nature of the experiment: immunoprecipitation from 2B10 cell lysate, Western blot detection. Here is the method:
To confirm the presence of the 40-kDa and 60-kDa protein bands detected in Western blotting, immunoprecipitation experiments were carried out using GPR49 monoclonal antibodies. Cell lysate prepared by solubilizing HA-GPR49-expressing DG44 cell line 2B10 in NP40 lysis buffer (0.5% NP40, 50 mM Tris-HCl (pH7.5), 150 mM NaCl, protease inhibitor complete mini (Roche)) was used as the sample for immunoprecipitation. The amount of protein included in the cell lysate was quantified by DC Protein Assay using BSA as a standard. A solution containing 2 μg of antibody was added to 500 μL of cell lysate containing 100 μg of protein, and this was reacted at 4° C. for one hour. Additionally, 20 μL of Protein A/G Plus agarose (Santa Cruz) was added and this was reacted overnight. Agarose beads were centrifugated at 1,000×g for one minute, washed twice with 1 mL of PBS, and then antigens bound to the antibodies were eluted by adding 50 μL of 2×SDS-sample buffer and warming at 60° C. for 30 minutes. After centrifuging at 1,000×g for one minutes, 15 μL of the supernatant obtained was subjected to SDS-PAGE. […] As is seen in the lanes for the samples immunoprecipitated using 2L13-3 and 2L36-12, a 40-kDa band and a 60-kDa band in addition to the 100-kDa band could surely be detected using 2U1E-1 and 2U2E-2, respectively. […]

B1: anti-GPR49 monoclonal antibody 2T15E-2 (antibody, mouse IgG1, V domains shown)
VH: EVQLVESGGGLVKPGGSLKISCAASGFTSSNYAMSWVRQTPEKRLEWVATISSGGGYTYYPDSEKGRFAISRDNAKNTLYLQMSGLRSEDTAMYYCATQLYYRSHYYSMDYWGQGSSVTVSS
VL: QIVLTQSPAIMSASPGEKVTMTCSASSSISYMHWYQQKSGTSPKRWIYDTSKLASGVPARFSGSGSGTSYSLTISSMEAEDAATYYCQQWHSKPATFGAGTKLELK
notes: Mouse IgG1 from hybridoma; light chain amplified with a kappa primer
On to B1, for which the binding result (in the experiment with human GPR49 protein [1]; in experiment [2]) was “binds” in each case.

B2: anti-GPR49 monoclonal antibody 2U1E-1 (antibody, mouse IgG1, V domains shown)
VH: QVQLQQPGAELVEPGASVKLSCKASGYTFTNYYMYWVKQRPGQGLEWIGGINPNNGGTNFNEKFKSKATLTVDKSSSTAYMQLSSLTSEDSAVYYCTGIYYRYNWHFGVWGAGTTVTVSS
VL: DVLMTQTPLSLPVSLGDQASISCRSSQTIVHSNGNTYLEWYLQKPGQSPKLLIYKVSNRFSGVPDRFSGSGSGTDFTLKIYRVEAEDLGIYYCFQGSHVPWTFGGGTKLEIK
notes: as for B1
Take B2: the binding result (in the experiment with mouse GPR49; with human GPR49 protein [3]; in experiment [2]) was “binds” each time.

B3: anti-GPR49 monoclonal antibody 2U2E-2 (antibody, mouse IgG1, V domains shown)
VH: EVKLVESGGDLVKPGGSLKLSCAASGFIFSTYAMSWVRQIPEKRLEWVASISPDGNTFYPDSLKGRFTISRDNVRNILYLQMSSLRSEDTAMYYCAVTGTFAYWGQGTLVTVSG
VL: DVLMTQTPLSLPVSLGDQASISCRSSQNILHSDGNTYLEWFLQKPGQSPKLLIFKISNRFPGVPDRFSGSGSGTDFTLKISRVEAEDLGVYYCFQSSHVPYTFGGGTKLEIK
notes: as for B1
With B3, the binding result (with mouse GPR49; with human GPR49 protein [3]; in experiment [2]) was “binds” throughout.

B4: anti-GPR49 monoclonal antibody 2L36-12 (antibody, mouse IgG1, V domains shown)
VH: QVQLQQSGAELVRPGTSVKVSCKASGYDFTNYLIEWVNQRPGQGLEWIGVINPGSGGTNYNEKFKGKATLTADKSSSTAYMQLSSLTSDDSAVYLCARYSPYGNYFDYWGQGTTLTVSS
VL: DIVMTQSHKFMSTSVGDRVSITCRASQDVGTAVAWYQQKPGQSPKLLIYWASTRHTGVPDRFTGSGSGTDFTLTINNVQSEDLADYFCQQYSSYPPTFGGGTKLEIK
notes: as for B1
As for B4, the binding result in experiment [2] is reported as “binds”.

B5: anti-GPR49 monoclonal antibody 2J18-1N (antibody, mouse IgM, V domains shown)
VH: EVQLQQSGPELVKPGDSVKMSCKASGYTFTDYYMDWVKQSHGKSLEWIGYIYPNNGGTSYNQKFKGKATLTVDKSSSTAYMELHSLTSEDSAVYYCARPYYSNSFAYWGQGTLVTVSA
VL: QIVLTQSPAIMSASPGEKVTMTCRASSSVSSSYLHWYQQKPGSSPKLWIYSTSNLASGVPARFSGSGSGTSYSLTISSVEAEDAATYYCQQYDSSPFTFGTGTKLEIK
notes: Mouse IgM from hybridoma; light chain amplified with a kappa primer
Turning to B5, in experiment [2], the binding result is given as “binds”.

B6: anti-GPR49 monoclonal antibody 2L13-3 (antibody, mouse IgG1, V domains shown)
VH: QVQLQQSGAELVRPGTSVKMSCKAAGYTFTNSWIGWVKQRPGHGLEWIGDIYPGGDYTNYNEKFKGKATLTADTSSSTAYMQLSSLTSEDAAIYYCTRGDGYFDYWGQGTTLTVSS
VL: DIVMTQSHKFMSTSVGDRVSITCKASQDVSIDVAWYQQRPGQSPKLLIYSASYRYTGVPDRFTGSGSGTDFTFTVSSVQAEDLAVYYCQQHYSTPPTFGGGTKLEIK
notes: as for B1
Turning to B6, in experiment [4], the binding result is “binds”.
